Literature values in patent publication US6823267B2, “Structural prediction of allosterism” (The Johns Hopkins University, priority 2000, dated 2004).

Target: glycerol kinase (Escherichia coli, UniProt P0A6F3)
Conditions: at 25° C.

Sequence of glycerol kinase (P0A6F3 whole entry): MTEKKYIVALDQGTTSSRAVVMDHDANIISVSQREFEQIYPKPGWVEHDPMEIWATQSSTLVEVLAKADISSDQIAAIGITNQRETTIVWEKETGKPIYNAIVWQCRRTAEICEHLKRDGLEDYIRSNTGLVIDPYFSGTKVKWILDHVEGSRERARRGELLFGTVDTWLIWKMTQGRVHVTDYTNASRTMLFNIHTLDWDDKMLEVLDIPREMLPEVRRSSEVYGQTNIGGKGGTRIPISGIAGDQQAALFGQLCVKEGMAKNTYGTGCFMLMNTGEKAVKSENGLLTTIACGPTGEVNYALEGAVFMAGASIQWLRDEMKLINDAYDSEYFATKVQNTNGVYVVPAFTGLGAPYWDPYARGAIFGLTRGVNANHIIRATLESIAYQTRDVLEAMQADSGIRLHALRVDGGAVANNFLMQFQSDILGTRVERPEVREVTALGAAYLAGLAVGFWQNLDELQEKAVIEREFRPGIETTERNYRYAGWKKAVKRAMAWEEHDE

B1: IIAGlc: protein that is an allosteric inhibitor of the enzyme glycerol kinase (protein, UniProt P69783 2-169, looked up)
PTS system glucose-specific …: GLFDKLKSLVSDDKKDTGTIEIIAPLSGEIVNIEDVPDVVFAEKIVGDGIAIKPTGNKMVAPVDGTIGKIFETNHAFSIESDSGVELFVHFGIDTVELKGEGFKRIAEEGQRVKVGDTVIEFDLPLLEEKAKSTLTPVVISNMDEIKELIKLSGSVTVGETPVIRIKK
association constant of IIAGlc to glycerol kinase: ~10^5 M^−1
